Measured values reported in paper doi:10.1101/2020.09.30.318261.

Target: SARS-CoV-2 prefusion stabilised spike ectodomain trimer (SARS-CoV-2) (UniProt P0DTC2)
Test: cryo-EM structure

**Q.** How did the stoichiometry N turn out when “SARS-CoV-2 prefusion stabilised spike ectodomain trimer (from UniProt P0DTC2 14-1200) (domain or fragment)” was run?
**A.** 3
